Assay [1] deals with T1, recombinant human APJ receptor (Chem-5-APJ cells) (human, UniProt P35414 1-380).
T1 sequence (looked up): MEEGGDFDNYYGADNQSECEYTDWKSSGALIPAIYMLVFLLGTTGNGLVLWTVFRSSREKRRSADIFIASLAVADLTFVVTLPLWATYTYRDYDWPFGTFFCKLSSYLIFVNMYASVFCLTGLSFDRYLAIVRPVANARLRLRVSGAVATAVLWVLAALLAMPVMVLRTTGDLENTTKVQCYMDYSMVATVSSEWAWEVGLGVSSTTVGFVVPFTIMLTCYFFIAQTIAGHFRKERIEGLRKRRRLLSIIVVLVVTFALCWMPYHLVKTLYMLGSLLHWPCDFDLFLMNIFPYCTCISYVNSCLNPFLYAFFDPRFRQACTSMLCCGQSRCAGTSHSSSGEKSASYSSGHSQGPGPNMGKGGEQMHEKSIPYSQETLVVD
As to the kind of experiment: cell-based or functional assay.

The target in assay [2] is T1, recombinant human APJ receptor …. The assay can be described thus: cell-based or functional assay. The source holds these as a separate data set.
Assay [3] deals with T2, wild-type rat apelin receptor tagged at its C-terminus with EGFP (rat, UniProt Q9JHG3 1-377).
T2 construct: whole, on cells; Used as crude membrane preparations from CHO cells stably expressing the receptor; also called wild-type rat apelin receptor-EGFP; not shown: EGFP tag at the C-terminus
T2 sequence (looked up): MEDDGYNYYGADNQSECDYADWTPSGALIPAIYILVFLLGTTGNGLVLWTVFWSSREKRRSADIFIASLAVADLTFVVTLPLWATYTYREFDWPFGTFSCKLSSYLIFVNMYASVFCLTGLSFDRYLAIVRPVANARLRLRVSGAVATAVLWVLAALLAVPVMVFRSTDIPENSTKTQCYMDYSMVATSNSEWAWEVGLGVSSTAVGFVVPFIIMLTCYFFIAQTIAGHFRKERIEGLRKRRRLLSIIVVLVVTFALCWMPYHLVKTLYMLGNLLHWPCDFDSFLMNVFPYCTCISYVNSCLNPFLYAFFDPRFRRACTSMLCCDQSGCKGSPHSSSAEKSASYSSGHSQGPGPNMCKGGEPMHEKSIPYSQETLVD
As to the kind of experiment: displacement of 0.2 nM [125I]-pyr-1-apelin-13; membranes of CHO cells expressing rat apelin receptor-EGFP. Here is the method:
This experiment evaluated the ability of peptides of the present embodiments to bind to the wild-type rat apelin receptor, in order to examine the impact of synthetic modification within the critical RPRL motif of the apelin peptides.
The reaction was stopped by adding 4 mL of cold binding buffer, filtered on Whatman GF/C filters and washed with 5 mL of cold binding buffer. Radioactivity was then counted using a Wizard 1470 Wallac gamma counter (Perkin Elmer, Turku, Finland). Binding experiment data were analyzed with GraphPad Prism.

*1 amine or outer side, *2 acyl side, *3 side chain or, on linkers, in order; H or OH if unused. Where no end group is shown, it is not given here. [ ]: non-standard residue; d: D form. The star is where a group is joined. azaArg = aza-arginine, alpha-carbon replaced by nitrogen, N=C(N)NCCCN(N[*:1])C(=O)[*:2]; Phe(4-Br) = N[C@@H](Cc1ccc(Br)cc1)C(=O)O; azaLeu = CC(C)CN(N[*:1])C(=O)[*:2]; Palmitoyl = CCCCCCCCCCCCCCCC(=O)*; αMeR = C[C@](N)(CCCNC(=N)N)C(=O)O; NMeL = CN[C@@H](CC(C)C)C(=O)O; αMeL = CC(C)C[C@](C)(N)C(=O)O; Nle = CCCC[C@H](N)C(=O)O; Aib = CC(C)(N)C(=O)O

This note sets out measurements from patent US20200239537A1 (GOVERNORS OF THE UNIVERSITY OF ALBERTA, published 2020).

For RQRPRLSHKGP[Nle][Aib][Phe(4-Br)] [Apelin-14A2 (54)], in assay [1], the “EC50 of Ca2+ mobilization, fold against the 17-mers” value is about 200 fold. Besides, in assay [2], the “EC50 (nM), Ca2+ mobilization assay” value stood at 568 nM. Broadly, the Ki is a dissociation constant, usually derived from enzyme kinetics or from competition with a known ligand. A higher Ki goes with a looser hold on the target. For the molecule KFRRQRP[αMeR]LSHKGP[Nle][Aib][Phe(4-Br)] (also called α-MeArc8-apelin-17 A2) [α-MeArg8-apelin-17 A2 (13)], in assay [3], the Ki was determined as 0.13 nM and the “times less potent than native 2” value was about 3 fold.

B1: apelin-17 A2 (5) (peptide)
peptide: KFRRQRPRLSHKGP[Nle][Aib][Phe(4-Br)]
notes: Synthetic ACE2-resistant analogue; also called parent peptide 5
Turning to B1, the Ki in assay [3] was determined as 0.19 nM. In addition, the “EC50 (nM), Ca2+ mobilization assay” value in assay [2] stood at 4 nM. In the case of KFRRQRPR[dL]SHKGP[Nle][Aib][Phe(4-Br)] [D-Leu9-apelin-17 A2 (9)], in assay [3], the Ki was determined as 0.14 nM and the “times less potent than native 2” value was about 3 fold. As for KFRRQRPRLSHKGP[Nle][Aib][Phe(4-Br)] (not fully specified (N-terminus); also: Fmoc removal from PEG not given here) [PEG-17A2 (57)], the “EC50 (nM), Ca2+ mobilization assay” value in assay [2] came to 6.3 nM.

B2: PEG-NMe17A2 (59) (peptide)
peptide: KFRRQRPR[NMeL]SHKGP[Nle][Aib][Phe(4-Br)]
modifications: not fully specified (N-terminus); numbers in words are those of the source; also: N-terminal PEG from Fmoc-(PEG)6 propionic acid, Fmoc removal not given here
For the molecule B2, in assay [2], the “EC50 (nM), Ca2+ mobilization assay” value came to 2.5 nM.

B3: pyr-1-apelin-13 A2 (4) (peptide)
peptide: XRPRLSHKGPXXX
modifications: pGlu at 1; Nle at 11; Aib at 12; paraBrPhe at 13
notes: Synthetic ACE2-resistant analogue; also called parent peptide 4; none (A2)
For the molecule B3, in assay [3], the Ki is 2 nM and the “factor of weaker affinity compared to 1” value worked out at 6 fold.

As for KFRRQRPR[azaLeu]SHKGP[Nle][Aib][Phe(4-Br)] [azaLeu9 apelin-17 A2 peptide (19)], in assay [3], the Ki stood at 0.15 nM and the “times less potent than native 2” value is about 3 fold. Consider Palmitoyl-KFRRQRPRLSHKGP[Nle][Aib][Phe(4-Br)] [PALM-17A2 (56)], for which the “EC50 (nM), Ca2+ mobilization assay” value in assay [2] stood at 2.6 nM. KFRRQRPR[NMeL]SHKGP[Nle][Aib][Phe(4-Br)] (also called Apelin-NMe17A2; NMeLeu-17A2) [N-MeLeu9-apelin-17 A2 (11)]: in assay [3], the Ki was found to be 0.45 nM and the “times less potent than native 2” value was about 3 fold.

KFRRQRP[azaArg]LSHKGP[Nle][Aib][Phe(4-Br)] [azaArg8-apelin-17 A2 (17)]: in assay [3], the Ki stood at 0.14 nM and the “times less potent than native 2” value is about 3 fold.

With RQRPR[NMeL]SHKGP[Nle][Aib][Phe(4-Br)] [Apelin-NMe14A2 (55)], the “EC50 of Ca2+ mobilization, fold against the 17-mers” value in assay [1] is about 200 fold. Also, the “EC50 (nM), Ca2+ mobilization assay” value in assay [2] turned out to be 176 nM.

B4: apelin-17 (2) (peptide)
peptide: KFRRQRPRLSHKGPMPF
notes: Native isoform; apelin residues 61-77; also called native apelin-17; native isoform 2
B4: the Ki in assay [3] turned out to be 0.053 nM. On to Palmitoyl-KFRRQRPR[NMeL]SHKGP[Nle][Aib][Phe(4-Br)] [PALM-NMe17A2 (58)], for which the “EC50 (nM), Ca2+ mobilization assay” value in assay [2] turned out to be 11.3 nM. Take KFRRQRPR[αMeL]SHKGP[Nle][Aib][Phe(4-Br)] [α-MeLeu9-apelin-17 A2 (15)]: in assay [3], the Ki came out at 0.18 nM and the “times less potent than native 2” value was about 3 fold.
